Test: soluble on expression in E. coli; label from the status in PepcDB or PDB records

Sequence	soluble on expression in E. coli
MINTNLSSNESSAVYIHIPFCEHICYYCDFNKVFLEGQPVDEYVDLLIKEMELTVAKGPIAPVDTVFVGGGTPTTLNEAQIARLCTAIHNTLPLKKDIEFSFEANPGDLSLSKLQAMQDHGVNRISMGVQSFNNELLKKIGRIHTVKDVYQSVENMRKIGFENVSIDLIFSLPGQTEADFQDTLKQALDLDLPHYSAYSLIIEPKTIFYNLMQKGKLFLPGQDAEANMYDLLLNEMEKHGRKQYEISNFAKEGFQSKHNITYWSNEHYYGFGAGAHGYVGNTRYSNFGPIKKYMEPLQENILPTFQQKELTLKEKMEEEMFLGLRKVDGVDKKHFKQKFGQDLDATFANAIQKTTAKGWLENNEENVALTRSGRFLGNNVFQEFL	not soluble
GTAGKVIKCKAAVLWEQKQPFSIEEIEVAPPKTKEVRIKILATGICRTDDHVIKGTMVSKFPVIVGHEATGIVESIGEGVTTVKPGDKVIPLFLPQCRECNACRNPDGNLCIRSDITGRGVLADGTTRFTCKGKPVHHFMNTSTFTEYTVVDESSVAKIDDAAPPEKVCLIGCGFSTGYGAAVKTGKVKPGSTCVVFGLGGVGLSVIMGCKSAGASRIIGIDLNKDKFEKAMAVGATECISPKDSTKPISEVLSEMTGNNVGYTFEVIGHLETMIDALASCHMNYGTSVVVGVPPSAKMLTYDPMLLFTGRTWKGCVFGGLKSRDDVPKLVTEFLAKKFDLDQLITHVLPFKKISEGFELLNSGQSIRTVLTF	soluble
MGSDKIHHHHHHMDVTSTLSLGDPLEPARKATADMLRSRDHSFSLPQPFYCDQRLFEIDMQEIFHKEWLIAGMTCEIPAKGNFLTLQIGKNPVLVIRGAEGQVHAFHNVCRHRGSRLCVSEKGKVAKLVCPYHQWTYELDGRLLFAGTEMGADFDMKEYGLKPIQVKTAGGYIFISLAENPPAIDDFLATLEHYMEPYDMENAKVAVQTTIREAANWKLVIENNRECYHCNGSHPELLKTLLEWDDVTDPRASQAFKDQVAACTSAWDAEKIPYAHASFGLRNRIVRMPLLDGTVSMTMDGKQGSKKLMGRIKNPDLGSMRILHLPHSWNHCMGDHLIVFTVWPISAQETLVTTKWLVHKDAVEGVDYDVARLREVWDATNDQDRRLAEENQRGINSDAYQPGPYSKTYEFGVINFLDWYSERMLNNLGEESAHVRKVAGS	not soluble
MGSDKIHHHHHHMAKAKTQFICSNCGYTSARYLGRCPNCGQWNTLIEEKIVPEAVVNRKARISFDGRVAKPKKISEISGNELPRTRTGLRELNRVLGGGIVPGSLILIGGDPGIGKSTLMLQVSGQLAENGGSVLYVSGEESDNQIKLRADRLGVGSDSFIVYPETDMEQIKSIVQQIEPDYLVIDSVQTMQEPDLQSPIGSVAQIREVTANLMQIAKTNAITVFIVGHVTKDGSIAGPKILEHMVDTVLYFEGDANYKYRILRTVKNRFGSTNELGIFEMRDHGLREVANPSEIFLEERLAGATGSAITASMEGSRPILVEVQALVAPTVFGNAQRVTTGVDRNRVSQILAVLEKHANLLLQNQDAHVRITGGVKIDEPAADLAIALAVASSYHEKATNASDVFLGEVGLGGEVRSISLIEDRLKEIAKLGFKRAIVSKNNLAGIDLPKGLQVIGVSTLEEALKLGLDLNRASKQKGFADL	not soluble
MAHHHHHHMGVGFQSKKLQNFCHSGAGEMCALENCIPRWGSFPCNAPGLTPVYELSSFENVELPLIFQKSNIGDLLASTSDSVGQLNGFQARHSNTEGIKSQVSYTSVALSTTNRENLFGWVDCAALPLCSSSTAGASILLVTLLTRESRGKSCMCILDDLVCQLSNGPFNWGCGGDCHDLISISLPSEPRNHAACPIILPIAKLSRKEIWLREAAPKMDVETIIYEGDNQQHLVDDVANGTNAGSCAVMEAGCRPETALGPENVKYGDNESVTQCEVTVDITPSTEPSARCLHFSECTTPVSSNRSFMEPIPLSNMESKALRCRKFDGTSYEVLRRRAHSDALSLILKKYSEHF	not soluble
SLSWDSVVERIRIFLVESPIKMARLQGVGNVKGSVKRVLLEVTSADGIVGWGEAAPWEVFTGTPEAAFSALDIYLRPLILGAPIKRVRELMARMDKMLVGHGEAKAAVEMALLDILGKATGLSVADLLGGRVRDRIPLSFSIADPDFDADLERMRAMVPAGHTVFKMKTGVKPHAEELRILETMRGEFGERIDLRLDFNQALTPFGAMKILRDVDAFRPTFIEQPVPRRHLDAMAGFAAALDTPILADESCFDAVDLMEVVRRQAADAISVKIMKCGGLMKAQSLMAIADTAGLPGYGGTLWEGGIALAAGTQLIAATPGISLGCEFYMPHHVLTEDVLEERIANSAGHVIVPDGPGLGISISEASLRGNAKILAER	soluble
MVKGDITTAFIAEEYPDGFQGAVLDEPTLRRVAAAAAAMNRVAEIRRTRISGTMNNHERHVGVDWVVALQGESYHVSIAADREGSTVSFSDGSSLRVTSDWTPGQPLEHHHHHH	not soluble
MDKKILVVDDEKPIADILEFNLRKEGYEVHCAHDGNEAVEMVEELQPDLILLDIMLPNKDGVEVCREVRKKYDMPIIMLTAKDSEIDKVIGLEIGADDYVTKPFSTRELLARVKANLRRQ	soluble
IEGIPVYLLDKESGPFSFFHWIFIYPQAHPQNELSEILTHEGTHARQRHSIDVIISELMCIACWFNPFMWLMKREVRNNLEYMADNRVLEAGHDSKSYQYHLLGLAHQKSAITLSNSFNVLPLKNRITMM	not soluble
MEITWEKPKSSSHHRNPSFSSTLLDQIYRSIDDSSPPPPLESIKKKKHHHQQRNASLHEDREISPIYHRRSIAADFERSRRKTDFLRHSNSSSSDSSGFSSSESDSFHGRSKSSASPPSSSRQQPKPIRTSSVDHSSAVQKPKELGGFLRTKSKALKIYSDLKKVKQPISPGGRLATFLNSLFTNAATNPKKHKKTTTVAVVEEPHSSSTCSSASSFSRSCLSKTPSSSGKSKRSVRFCPVNVILDEDSSFTMPYAYNNERLYDNNEAKRVEEHRRVIQAAKDLLRTYHNKNKVTTTNINNVEEDDEDDAASCASSDLFELENLSAIGIERYREELPVYETTRLDNMNRVIATGLIV	soluble
ERFAREPMAAGHRMWQMAGLKAQRAQTDVNNKKAAFDAAAKEKSDADVALSSALERRKQKENKEKDAKAKLDKESKRNKPGKATGKGKPVNNKWLNNAGKDLGSPVPDRIANKLRDKEFKSFDDFRKKFWEEVSKDPELSKQFSRNNNDRMKVGKAPKTRTQDVSGKRTSFELHHEKPISQNGGVYDMDNISVVTPKRHIDIHRGK	soluble
MGSDKIHHHHHHMTAKVISFINMKGGVGKTTLCVGVSEFMAHFKSKKILLIDLDPQFNATQTLMDMYDLTDQYMNDIRFNKTIRLLFEETHSVSERPVLPKPDKVILHLDTSDVIDGELDIICGSIDLIKDDDSRKSKYKRVRKFLREQGLLKHYDYIFIDCPPTISFYTDAALYASDYYIVPTRIDRYSILGINLLKTVIEQAKFDDDLSIEPLGLIYTNYPTNNIPAPKQQEILDVLEENKDVLEIGVFRNKFHYLEHLMTGKSGNIASKYVKSKKDIEKISVEIESKVH	not soluble
MSLVRSKAPLRLGLAGGGSDVSPYSDIYGGLILNATINLYAYCTIEETNSGRIEINAYDAQCCKSYLSMSQLEIDGEASLIKGVYNRIIRDYRLEPKSFKITTYNDAPAGSGLGTSSTMVVCILKAFIEWLSLPLGDYETSRLAYEIERKDLGLSGGKQDQYAAAFGGFNYMEFLQNDLVIVNPLKMKRWIVDELESSMVLYFTGRSRSSAAIINEQKKNTSEGNQTAIEAMHKIKQSAIDTKLALLKGDVGEFARILGEGWENKKKMAGAITNPMIQEAFDVATGAGAMAGKVSGAGGGGFIMFVVEPTRKEEVVRALNNLNGFVMPFQFIDDGAHGWKIYSTDKVQKEGHHHHHH	soluble
MAHHHHHHMAASANGSTKGSETDLPIGKDGTTLHLKCKSDELADRIIFVGDPGRVDVISGYFDKDSIRASRDHREIRFATGTYKGTPVTVISTGMGVDNIEIVLNEIHALKEYDMERGQWRHRKGDADAPSAGPFFDPSTMKIIRLGTCGSPAESVPPLALAVTRHAIGMDNTSLYYSAGTRETSKDQQEIRRIVREQTGLRAIDIYTSMAHPNITKSICAACDAHNAATGSEADKQQYVIGTTATASGFYGCQGRRVGRFMKHLTVPNMVEELGSLKFNLSNGVEVVTNIEMETSAICYLSDMLGYQAGAACVVVSKRVGEKKMFLGDQLDAAMKRCIKIILEALVSA	soluble
MGSDKIHHHHHHMKRKINYTHIAEPTVFENVFPTYLTNETMMARKQKVLQRMETEKFDQLVFYADKEHGSNFEYLTGFIPRFEEGLLVLNKDGAATLILGNENLKLCQHARISADLIHYLAFSLPNQPMAGEQKLSQIFETLLDETAQKIGIVGWKMFTTQQQEPATMFDVPHFIVEALKKALPKEARLLNGTHLLIGAKGARATNNANELAHYEYGANLASRSMLKALNAIEIGQRETDIGALLNDEGQTPTVVTIAATGQRFEYANMYPTAKEIQLGDALSLTTGYKGGLSSRTGFVIENEQQLPEAQRDYLERVAKPYFQAVVHWLETIRIGLLGREMYQAIEEQLPKEIYHWHLNPGHLVSDDEWMSSPIYPDSAIRLESGMLFQVDIIPSVPGYTGVSAEECVALADETLQKEIQQTYPDMWQRIATRKAYLKETLKLDLPSEVLPMSNLVGYLRPFYLAKDKALCVEKPALK	not soluble
MSLSCLFLQSAGEMLQNCAQSNCRIIPKKLRDMKREEICRLLADKVNKLKNKENSLSELLPDVRLLYGETPFARTPVMYEPGIIILFSGHKIGYINERVFRYDANEYLLLTVPLPFECETYATSEVPLAGLRLNVDILQLQELLMDIGEDEHFQPSMAASGINSATLSEEILCAAERLLDVMERPLDARILGKQIIREILYYVLTGPCGGALLALVSRQTHFSLISRVLKRIENKYTENLSVEQLAAEANMSVSAFHHNFKSVTSTSPLQYLKNYRLHKARMMIIHDGMKASAAAMRVGYESASQFSREFKRYFGVTPGEDAARMRAMQGNEGHHHHHH	soluble
MNESGFLIDTHAHIDGHDFAADFDAMLSRAWEAGLSHIVTVGADLESSRAAVALAGRHERIWCAVGIHPHDAGRVTDRCYDEIRTLAQGNPKVAAIGEIGLDFFRDRSPRDEQEQVFRRFIRLARELALPIVVHDRDAHERVMAILREEKARDVGGVLHCFSGDLAMARECVDMGFLISIPGTVTYPSNEALREVVRGVKIEHLLVETDCPYLTPVPHRGKRNEPAYVRLTAEKVAELKGLSLEDVGRITSLNARRLFGIGESDQAARIAYRIRNSLYLNITNRCSNRCSFCAKFDDYTVKGHHLRLDHEPDSAEVLAAVGEPGPVDEIVFCGFGEPMLRLDLIVEVARELKKRGFRIRINTDGQANLVHGRNVLPELQGLVDCISVSLNAADADTYARLCNTPFGTNGFNGICRFLEEARLYIPTVVATAVTVPGIDVAAVRALAESLGVEFREREFAEVGLEHHHHHH	soluble
MSLSRLPVIVGFGGYNAAGRSSFHHGFRRMVIESMDPQARQETLAGLAVMMKLVKAEGGRYLAEDGTPLSPEDIERRYAERIFASTLVRRIEPQYLDPDAVHWHKVLEATPAEGQALTFKASPKQLPEPLPGNWSVTPAADGEVLVSIHERCEFKVDSYRPLTVKSAGQLPTGFEPGELYNSRFHPRGLQMSVVAATDAIRSTGIDWQTIVDNVQPDEIAVFSGSIMSQLDDNGFGGLMQSRLKGHRVSAKQLPLGFNSMPTDFINAYVLGSVGMTGSITGACATFLYNLQKGIDVITSGQARVVIVGNSEAPILPECIEGYSAMGALATEEGLRLIEGRDEVDFRRASRPFGENCGFTLAESSQYVVLMDDELALRLGADIHGAVTDVFINADGFKKSISAPGPGNYLTVAKAVASAVQIVGLDTVRHASFVHAHGSSTPANRVTESEILDRVASAFGIDGWPVTAVKAYVGHSLATASADQLISALGTFKYGILPGIKTIDKVADDVHQQRLSISNRDVRQDKPLEVCFINSKGFGGNNASGVVLSPRIAEKMLRRRHGEAAFAAYVEKREQTRGAARAYDQRALQGDLEIIYNFGQDLIDEQAIEVSAEQVTVPGFSQPLVYKKDARFSDMLDEGHHHHHH	soluble
